Source: patent US20230212300A1 (REMD BIOTHERAPEUTICS, published 2023)

Target: T1, human endothelin A receptor (ETAR), tagged, stably expressed on recombinant CHO cells (human, UniProt P25101 21-427)
T1 sequence: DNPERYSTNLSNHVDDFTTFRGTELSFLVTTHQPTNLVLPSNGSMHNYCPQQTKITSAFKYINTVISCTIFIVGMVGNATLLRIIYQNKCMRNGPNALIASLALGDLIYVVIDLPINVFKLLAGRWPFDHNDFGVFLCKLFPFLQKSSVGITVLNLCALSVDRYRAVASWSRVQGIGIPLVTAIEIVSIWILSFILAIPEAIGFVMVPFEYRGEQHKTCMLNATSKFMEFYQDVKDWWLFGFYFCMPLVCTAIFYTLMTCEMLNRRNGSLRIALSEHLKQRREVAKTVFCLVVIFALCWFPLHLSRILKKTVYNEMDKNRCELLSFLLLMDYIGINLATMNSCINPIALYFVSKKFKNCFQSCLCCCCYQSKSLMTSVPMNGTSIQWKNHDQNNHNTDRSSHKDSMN
Assay: cell-based or functional assay

B1: murine mAb 336D8G9 (antibody, V domains shown)
VH: EVQLQQSGAELVRPGASVKLSCPASGFTIKDYYIHWVKQRPEQGLEWIGRIDPEDGDTEYAPKFQGKATMTADTSSNTAYLHLSSLTSEDTAVYYCTSNWYSNSYWGQGTTLTVSS
VL: DVVMTQTPLSLPVSLGDQASISCRSSQSLVHSNGNTYLHWYLQKPGQSPKVLIYKVSNRFSGVPDRFSGSGSGTDFTLKISRVEAEDLGVYFCSQSTHVPYTFGGGTKLEIK
B1 was tested, and the “HuET AR Binding IC50 (nM); IP1 assay (IP-one-Gq kit, HTRF 665/620) with 25.0 nM ET-1” value was 0.0607 nM.

B2: murine mAb 312A10E5 (antibody, V domains shown)
VH: QIQLVQSGPDLKKPGETVKISCKASGYTFTNYGMSWVKQAPGKGLKWMGWINTYSGESTYADDFKGRFAFSLETSASTAYLQINNLKNEDTATYFCARSLNRDTWFTYWGQGTLVTVSA
VL: QAVVTQESALSTSPGETVTLTCRSITGAVTTSNYANWVQEKPDHLFTGLIGGTNNRAPGVPARFSGSLIGDKAALTITGAQTEDEAIYFCALWYSNHWVFGGGTKLTVL
For B2, the “HuET AR Binding IC50 (nM); IP1 assay (IP-one-Gq kit, HTRF 665/620) with 25.0 nM ET-1” value was 0.0891 nM.
